Data from paper PMC7109055.

Columns and labels:
[1] = biological target: His6-VanSSC (full-length VanS sensor histidine kinase from Streptomyces coelicolor) (Streptomyces coelicolor) (UniProt Q9X942); experiment: SEC; analytical gel filtration on Superose 12 10/300; 20 mM HEPES pH 7.8, 200 mM NaCl (legend: 300 mM NaCl), 0.075% DPC; elution volume compared with protein standards
[2] = biological target: His6-VanSSC (full-length VanS sensor histidine kinase from Streptomyces coelicolor) (Streptomyces coelicolor) (UniProt Q9X942); experiment: native gel or EMSA

In the case of “His6-VanSSC (full-length VanS sensor histidine kinase from Streptomyces coelicolor) (from UniProt Q9X942 1-364) (enzyme)”, the stoichiometry N [1] was 2 and the stoichiometry N [2] was 2.
